The results in this text go back to US20220049002A1 (KINDRED BIOSCIENCES, published 2022).

Residue numbers refer to the chain shown, from its start.

In general, Kd refers to the concentration at which binding is half-saturated. A low value points to a tighter complex.

For test [1], the target named is Canine IL4R-ECD_C-HuFc_His6 (processed) (canine). Nature of the test: BLI (Octet): canine IL4R-ECD_C-HuFc_His6 on anti-human Fc tips. Here is the method: An alternative binding assay was performed also using an Octet Biosensor. Canine IL4R-ECD_C-HuFc_His6 (SEQ ID NO: 109) was captured on anti-human Fc-bound sensor tips. The association of either Clone B or I antibody and canine IL4R-ECD_C-HuFc_His6 was monitored for 600 seconds. Dissociation was monitored for 600 seconds. The buffer for dilutions and all binding steps was 20 mM phosphate, 150 mM NaCl, pH 7.2. […] In addition, amine conjugation may affect the affinity of canine IL4R-ECD_C-His6 to interact with Clone B and I antibodies.
In general terms: In BLI a coated tip is dipped into the sample, and binding shifts an interference pattern.

Test [2] has as its target T1, Canine IL4R-ECD_C-His6 (processed) (canine, biotinylated through amine chemistry in the ELISA and Octet assays).
T1 chain: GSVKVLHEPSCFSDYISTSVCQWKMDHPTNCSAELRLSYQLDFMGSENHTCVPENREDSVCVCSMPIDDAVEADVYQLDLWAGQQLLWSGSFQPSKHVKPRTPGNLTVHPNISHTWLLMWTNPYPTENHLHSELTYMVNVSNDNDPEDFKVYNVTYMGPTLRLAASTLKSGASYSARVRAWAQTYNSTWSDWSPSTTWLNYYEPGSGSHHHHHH
Kind of test: BLI (Octet): biotinylated canine IL4R-ECD_C-His6 on streptavidin tips, 1:1 model. As for the experimental part: The binding analysis was performed using an Octet Biosensor as follows. Briefly, canine IL4R-ECD_C-His6 (SEQ ID NO: 107) was biotinylated through amine chemistry. The free unreacted biotin was removed by extensive dialysis. Biotinylated canine IL4R-ECD_C-His6 was captured on streptavidin sensor tips. The association of either Clone B or I antibody and canine IL4R-ECD_C-His6 (25 μg/mL) was monitored for 600 seconds. Dissociation was monitored for 600 seconds. A buffer only blank curve was subtracted to correct for any drift. The data were fit to a 1:1 binding model using ForteBio™ data analysis software to determine the kₒₙ, koff, and the Kd. The buffer for dilutions and all binding steps was 20 mM phosphate, 150 mM NaCl, pH 7.2.

Test [3] deals with T2, Canine IL4R (extracellular domains produced by 293 cells; Examples 16-19) (canine, biotinylated).
T2 construct: also called biotinylated canine IL4R
T2 chain: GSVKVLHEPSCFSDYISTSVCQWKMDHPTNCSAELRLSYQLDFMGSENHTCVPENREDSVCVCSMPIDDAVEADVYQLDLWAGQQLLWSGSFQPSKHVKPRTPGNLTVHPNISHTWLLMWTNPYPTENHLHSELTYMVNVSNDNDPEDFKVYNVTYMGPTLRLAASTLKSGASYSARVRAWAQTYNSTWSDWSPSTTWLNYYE
Nature of the test: method not stated (binding affinity to canine IL4R).

The target of test [4] is Canine IL4R-ECD_C-HuFc_His6 (processed) (canine). Kind of test: Western blot.
The target of test [5] is Human IL4R-ECD_C-HuFc_His6 (processed) (human). Kind of test: Western blot. (In western blotting, separated proteins are transferred to a membrane and probed.)
Test [6] deals with T2, Canine IL4R (extracellular domains …). Nature of the test: BLI (ForteBio OctetRed): biotinylated canine IL4R on streptavidin tip. Here is the method: The four mouse antibodies were purified from the hybridoma cell cultures and their affinities to canine IL4R were measured using biosensor (ForteBio OctetRed). Biotinylated canine IL4R was bound to the streptavidin sensor tip. The Kds of the 4 candidates were all less than 10 nM.

Test [7] shares this target. Nature of the test: BLI (ForteBio OctetRed). From the text: DNA sequences encoding a chimeric antibody were designed for a fusion of murine VH and murine VL to canine constant heavy chain IgG-B and canine constant light chain (kappa). The nucleotide sequences were synthesized chemically and inserted into an expression vector suitable for transfection into a CHO host cell. After transfection into CHO cells, the light chain or heavy chain protein or both were secreted from the cell. All four chimeric canine IgG-B were purified by single step Protein A column chromatography.

Sequence of Human IL4R-ECD_C-HuFc_His6 (processed) (human) (chain, as listed by the source limits assumed): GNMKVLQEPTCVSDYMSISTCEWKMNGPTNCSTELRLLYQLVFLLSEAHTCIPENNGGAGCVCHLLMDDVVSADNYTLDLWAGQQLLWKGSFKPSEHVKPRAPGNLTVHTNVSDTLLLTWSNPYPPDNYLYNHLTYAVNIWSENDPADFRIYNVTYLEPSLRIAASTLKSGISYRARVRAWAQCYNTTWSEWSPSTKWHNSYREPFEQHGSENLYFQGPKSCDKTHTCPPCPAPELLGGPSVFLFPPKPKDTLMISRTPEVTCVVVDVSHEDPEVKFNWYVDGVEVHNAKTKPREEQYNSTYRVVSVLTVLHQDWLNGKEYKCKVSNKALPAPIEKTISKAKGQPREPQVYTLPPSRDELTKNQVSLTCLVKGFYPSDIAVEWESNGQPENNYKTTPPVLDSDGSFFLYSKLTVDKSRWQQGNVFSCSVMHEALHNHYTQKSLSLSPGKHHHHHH

B1: Clone B antibody (mouse monoclonal anti-canine IL4R) (antibody, mouse IgG1, kappa, V domains shown)
VH: EVKLEESGPELVKPGASVKMSCKASGYTFTSYVMHWVKQKPGQGLEWIGYINPKNDGTFYNGKFKGKATLTSDKSSSTAYMELSSLTSEDSAVYYCAAFNYGIAYWGQGTLVTVSS
VL: IVLTQTPSSLSASLGERVSLTCRASQEISGYLSWLQQKPDGTIKRLIYAASTLDSGVPKRFSGSRSGSDFSLTISSLESEDFADYYCVQYASYPWTFGGGARLEIKR
notes: Mouse IgG; also called anti-IL4R-mAb Clone B
Consider B1, for which the equilibrium dissociation constant (Kd) in test [1] is about 0.1 nM; in test [2], 2.03 nM.

B2: Caninized Clone M3 antibody, variable HC v1 / variable LC v1 (variant canine IgG-B C1q-, CD16-; canine kappa) (antibody, V domains shown)
VH: EVQLVESGGDLVKPAGSLRLSCTVSGFSLSRYSVHWVRQAPGKGLEWLGMIWGGGSTDYNSVVKGRFTISRDNAKNTVYLQMNSLRAEDTAMYYCARTYRGYALDYWGQGTLVTVSS
VL: DIVMTQTPLSLSVSPGEPASISCRASQDISNYLNWYLQKAGQSPRLLIYYTSRLQSGVPDRFSGSGSGTDFTLRIGRVEAEDAGIYFCQQANTLPLTFGQGTRLEVRR
notes: also called caninized M3 (HC v1)
As for B2, in test [3], the Kd is at most 1 nM.

B3: Caninized Clone M3 antibody, variable HC v2 / variable LC v1 (variant canine IgG-B C1q-, CD16-; canine kappa) (antibody, V domains shown)
VH: ELTLQESGPGLVKPSQTLSLTCTVSGFSLSRYSVHWIRQPRGRGLELLGMIWGGGSTDYNPAFQGRISITADTAKNQFSLQLSSMTTEDTAVYYCARTYRGYALDYWGQGTLVTVSS
VL: B2 VL
notes: also called caninized M3 (HC v2)
B3 had a dissociation constant (Kd) in test [3] of at most 1 nM.

B4: Caninized Clone M9 antibody, variable HC v1 / variable LC v1 (variant canine IgG-B C1q-, CD16-; canine kappa) (antibody, V domains shown)
VH: EVQLVESGGDLVKPGGSLRLSCAASGFTFSSFGMHWVRQAPGKGLEWVAYIRSDSSTIYYADAVKGRFTISRDNAKNTLYLQMNSLRAEDTAMYYCARSGYYGSFSLTYWGQGTLVTVSS
VL: DIMLTQTPLSLSVSPGEPASISCSASSSVSSNYLHWYLQKAGQSPRLLIYRTSNLPSGVPDRFSGSGSGTDFTLRIGRVEAEDAGIYYCQQGSGMLTFGQGTRLEVRR
notes: also called caninized M9 (HC v1)
As for B4, the Kd in test [3] was at most 1 nM.

B5: Caninized Clone M9 antibody, variable HC v2 / variable LC v1 (variant canine IgG-B C1q-, CD16-; canine kappa) (antibody, V domains shown)
VH: B4 VH with A23V, E46Q
VL: B4 VL
notes: also called caninized M9 (HC v2)
In turn, B5 displayed an equilibrium dissociation constant (Kd) in test [3] of at most 1 nM.

B6: M9 mouse monoclonal antibody (anti-canine IL4R) (antibody, V domains shown)
VH: DVQLVESGGGLVQPGGSRKLSCAASGFTFSSFGMHWVRQAPEKGLEWVAYIRSDSSTIYYADTVKGRFTISRDNPKNTLFLQMTSLRSEDTAMYYCARSGYYGSFSLTYWGQGTLVTVSA
VL: EIVLTQSPTTMAASPGEKITITCSASSSVSSNYLHWYQQKPGFSPKLLIYRTSNLPSGVPARFFGSGSGTSYSLTIGTMEAEDVATYYCQQGSGMLTFGAGTKLELK
notes: Mouse antibody purified from hybridoma culture; also called Clone M9
For B6, the binding result is “binds” in test [4] and “no binding” in test [5]. This molecule gave a dissociation constant (Kd) in test [6] of under 10 nM.

B7: Murine-canine chimeric M9 antibody (canine IgG-B, canine kappa) (antibody, V domains shown)
VH: B6 VH
VL: B6 VL
notes: Murine VH and VL fused to canine constant heavy chain IgG-B and canine constant light chain (kappa); also called chimeric canine IgG-B (M9)
B7 registered a Kd in test [7] of under 10 nM.

B8: M8 mouse monoclonal antibody (anti-canine IL4R) (antibody, V domains shown)
VH: QVQLQQSGPELVKPGALVKISCKASGYTFTSYDINWVKQRPGQGLEWIGWIYPGDGSTKYNEKFKGKATLTADKSSSTAYMQLSSLTSEDSAVYFCARSSFVVWGAGTTVTVSS
VL: DIQMTQSSSYLSVSLGGRVTITCKASDPINNWLAWYQQKPGNAPRLLISGATSLETGVPSRISGSGSGKDYSLSITSLQTEDIATYYCHQYWSIPYTFGGGTKLEIK
notes: Mouse antibody purified from hybridoma culture; also called Clone M8
With B8, the binding result in test [4] is “binds”; in test [5], “no binding”. In test [6], the dissociation constant Kd was under 10 nM.

B9: Murine-canine chimeric M8 antibody (canine IgG-B, canine kappa) (antibody, V domains shown)
VH: B8 VH
VL: B8 VL
notes: Murine VH and VL fused to canine constant heavy chain IgG-B and canine constant light chain (kappa); also called chimeric canine IgG-B (M8)
In test [7], B9 yielded a Kd of under 10 nM.

B10: M3 mouse monoclonal antibody (anti-canine IL4R) (antibody, V domains shown)
VH: QVQLKESGPGLVAPSQSLSITCTVSGFSLSRYSVHWVRQPPGKGLEWLGMIWGGGSTDYNSVFKSRLSISKDNSKSQVFLKMNSLQTDDTAMYYCARTYRGYALDYWGQGTSVTVSS
VL: DIQMTQTTSSLSASLGDRVTISCRASQDISNYLNWYQQKPDGTVKLLIYYTSRLQSGVPSRFSGSGSGTDYCLTISNLEQEDIATYFCQQANTLPLTFGSGTKLELK
notes: Mouse antibody purified from hybridoma culture; also called Clone M3
For B10, the figures for the binding result in test [4] and in test [5] were “binds” and “no binding”, respectively. The molecule further gave a Kd in test [6] of under 10 nM.

B11: M5 mouse monoclonal antibody (anti-canine IL4R) (antibody, V domains shown)
VH: B10 VH
VL: B10 VL
notes: Mouse antibody purified from hybridoma culture; also called Clone M5
For B11, the dissociation constant (Kd) in test [6] is under 10 nM.

B12: Murine-canine chimeric M5 antibody (canine IgG-B, canine kappa) (antibody, V domains shown)
VH: B10 VH
VL: B10 VL
notes: Murine VH and VL fused to canine constant heavy chain IgG-B and canine constant light chain (kappa); also called chimeric canine IgG-B (M5)
On to B12, for which the dissociation constant (Kd) in test [7] was under 10 nM.

B13: Murine-canine chimeric M3 antibody (canine IgG-B, canine kappa) (antibody, V domains shown)
VH: B10 VH
VL: B10 VL
notes: Murine VH and VL fused to canine constant heavy chain IgG-B and canine constant light chain (kappa); also called chimeric canine IgG-B (M3)
The molecule B13 displayed a Kd in test [7] of under 10 nM.
